The values that follow come from US20240002531A1 (ONO PHARMACEUTICAL, published 2024).

Common to all, as to assay: peptide ELISA, OD 655 nm
The target of assay [1] is T1, I613A peptide (HER2 603-622 with I613A) (human).
T1 construct: also called 1613A
T1 peptide: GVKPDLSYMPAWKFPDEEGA

The target of assay [2] is T2, K615A peptide (HER2 603-622 with K615A) (human).
T2 peptide: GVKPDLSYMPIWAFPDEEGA

For assay [3], the target named is T3, M611A peptide (HER2 603-622 with M611A) (human).
T3 peptide: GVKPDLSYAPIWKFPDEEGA

The target of assay [4] is T4, HER2 peptide p603-622 (amino acids 603 to 622 of human HER2) (human).
T4 construct: Synthetic peptide; also called wild-type HER2 peptide
T4 peptide: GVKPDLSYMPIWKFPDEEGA

The target in assay [5] is T5, D607A peptide (HER2 603-622 with D607A) (human).
T5 peptide: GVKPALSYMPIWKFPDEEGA

The target in assay [6] is T6, K605A peptide (HER2 603-622 with K605A) (human).
T6 peptide: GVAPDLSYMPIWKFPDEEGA

Assay [7] deals with T7, P617A peptide (HER2 603-622 with P617A) (human).
T7 peptide: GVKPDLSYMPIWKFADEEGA

The target in assay [8] is T8, F616A peptide (HER2 603-622 with F616A) (human).
T8 peptide: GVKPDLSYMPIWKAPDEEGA

Assay [9] has as its target T9, P612A peptide (HER2 603-622 with P612A) (human).
T9 peptide: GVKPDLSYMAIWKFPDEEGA

Assay [10] concerns the target T10, HER2_604-622C peptide (NH2-VKPDLSYMPIWKFPDEEGAC-COOH) (human).
T10 construct: KLH was added for immunisation, the peptide itself was coated in the screening ELISA
T10 peptide: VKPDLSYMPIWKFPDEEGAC

For assay [11], the target named is T11, L608A peptide (HER2 603-622 with L608A) (human).
T11 peptide: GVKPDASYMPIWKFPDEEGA

The target of assay [12] is T12, E619A peptide (HER2 603-622 with E619A) (human).
T12 peptide: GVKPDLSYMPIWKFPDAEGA

Assay [13] deals with T13, V604A peptide (HER2 603-622 with V604A) (human).
T13 peptide: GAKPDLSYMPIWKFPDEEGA

Assay [14] concerns the target T14, P606A peptide (HER2 603-622 with P606A) (human).
T14 peptide: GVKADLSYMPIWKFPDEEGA

Assay [15] addresses T15, E620A peptide (HER2 603-622 with E620A) (human).
T15 peptide: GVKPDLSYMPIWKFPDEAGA

Assay [16] concerns the target T16, W614A peptide (HER2 603-622 with W614A) (human).
T16 peptide: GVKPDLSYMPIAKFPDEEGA

In assay [17] the target is T17, G603A peptide (HER2 603-622 with G603A) (human).
T17 peptide: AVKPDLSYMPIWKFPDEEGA

Assay [18] addresses T18, Y610A peptide (HER2 603-622 with Y610A) (human).
T18 peptide: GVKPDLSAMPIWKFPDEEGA

In assay [19] the target is T19, G621A peptide (HER2 603-622 with G621A) (human).
T19 peptide: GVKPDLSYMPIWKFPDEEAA

Assay [20] has as its target T20, D618A peptide (HER2 603-622 with D618A) (human).
T20 peptide: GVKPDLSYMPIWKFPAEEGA

The target in assay [21] is T21, S609A peptide (HER2 603-622 with S609A) (human).
T21 peptide: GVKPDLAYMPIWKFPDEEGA

B1: H2Mab-289 antibody (antibody, mouse IgG1, kappa, V domains shown)
VH: EVQLQQSGPELVKPGASVKISCKASGYSFTGFFMNWVMQSHGKSLEWIGRINPYNGDTFYNQKFNDKATLTVDKSSRTAHMDLRNLASEDSAVYYCATISGNYRGYAMDNWGQGTSVTVSS
VL: DVLMTQTPLSLPVSLGDQASISCRSSQTILHTNGNTYLEWYLQKPGQSPKLLIYKVSNRFSGVPDRFSGSGSGTDFTLKISRVEAEDLGVYYCFQGSRVPPTFGGGTKLEIKR
As for B1, the binding result in assay [1], in [2], in assay [3], in [4], in assay [5] and in assay [6] was “binds” each time. For the same molecule, the binding result in assay [7], in [8], in assay [9], in assay [10], in assay [11] and in assay [12] was “binds” each time. The binding result in [13], in [14], in assay [15], in [16], in assay [17] and in assay [18] was “binds” each time. Moreover, the binding result in [19], in assay [20] and in assay [21] was “binds” each time.

B2: H2Mab-291 antibody (antibody, mouse IgG3, V domains shown)
VH: EVQLQQSGPELVKPGASMKISCKASGYSFTGYTMNWVKQSHGKNLEWIGLINPYNGNTRYNQKFQDKATLTVDRSSSTAYMELLSLTSEDSAVYYCVKEPSDYWGQGTTLTVSS
VL: DVVMTQTPLSLPVSLGDQASISCRSSQSLVHINGNTYLHWYLQKPGQSPKLLIYKVSKRFSGVPDRFSGSGSGTDFTLKISRVEAADLGVYFCSQSTHVPPTFGGGTKLEIKR
Consider B2, for which the binding result in assay [1], in assay [2], in assay [3], in assay [4], in assay [5] and in assay [6] was “binds” throughout. The binding result in [7], in assay [8], in [9], in assay [10], in assay [11] and in assay [12] was “binds” each time. The binding result in assay [13], in assay [14], in assay [15], in [16], in assay [17] and in [18] was “binds” each time. Further, the binding result in assay [19], in assay [20] and in [21] was “binds” in each case.

B3: H2Mab-292 antibody (antibody, mouse IgG3, V domains shown)
VH: EVQLQQSGPELVKPGASRKISCKASGYSFTGYTMNWVKKSHGKNLEWIGLINPSNGGTRYNQKFKDKATLTVDKSSSTAYMELLSLTSEDSAVYYCVKEPSDYWGQGTTLTVSS
VL: DVVMTQTPLSLPVSLGDQASISCRSSQSLVHSNGNTYLHWYLQKPGQSPKLLIYKVSNRFSGVPDRFSGRGSGTDFTLKISRVEAEDLGIYFCSQSTHVPPTFGGGTKLEIKR
With B3, the binding result in assay [1], in assay [2], in assay [3], in [4], in [5] and in [6] was “binds” throughout. Besides, the binding result in assay [7], in [8], in [9], in assay [10], in assay [11] and in [12] was “binds” in each case. Moreover, the binding result in assay [13] is on record as “binds”; in [14], “binds”; in [15] it was “binds”; in [16], “no binding (tested: 10 ug/ml)”; in assay [17], “binds”; in [18] it was “binds”. Besides, the binding result in [19], in [20] and in [21] was “binds” in each case.
